Measurements from patent US20030200558A1 (MONSANTO, published 2003).
Substitutions are numbered along the chain they refer to.

B1: epitope (FLAG)-tagged form of the β-conglycinin β subunit encoded by pMON39328 (other)
chain: MDYKDDDDKLKVREDENNPFYLRSSNSFQTLFENQNGRIRLLQRFNKRSPQLENLRDYRIVQFQSKPNTILLPHHADADFLLFVLSGRAILTLVNNDDRDSYNLHPGDAQRIPAGTTYYLVNPHDHQNLKIIKLAIPVNKPGRYDDFFLSSTQAQQSYLQGFSHNILETSFHSEFEEINRVLLGEEEEQRQQEGVIVELSKEQIRQLSRRAKSSSRKTISSEDEPFNLRSRNPIYSNNFGKFFEITPEKTPQLRDLDIFLSSVDINEGALLLPHFNSKAIVILVINEGDANIELVGIKEQQQKQKQEEEPLEVQRYRAELSEDDVFVIPAAYPFVVNATSNLNFLAFGINAENNQRNFLAGEKDNVVRQIERQVQELAFPGSAQDVERLLKKQRESYFVDAQPQQKEEGSKGRKGPFPSILGALY
notes: Expressed in E. coli. pMON39335 encodes the same protein (silent change TTA to CTT at Leu24); also called pMON39335
B2: mature form (plus additional methionine encoded by start codon) of the β-conglycinin β subunit encoded by pMON39329 (other)
chain: MLKVREDENNPFYLRSSNSFQTLFENQNGRIRLLQRFNKRSPQLENLRDYRIVQFQSKPNTILLPHHADADFLLFVLSGRAILTLVNNDDRDSYNLHPGDAQRIPAGTTYYLVNPHDHQNLKIIKLAIPVNKPGRYDDFFLSSTQAQQSYLQGFSHNILETSFHSEFEEINRVLLGEEEEQRQQEGVIVELSKEQIRQLSRRAKSSSRKTISSEDEPFNLRSRNPIYSNNFGKFFEITPEKTPQLRDLDIFLSSVDINEGALLLPHFNSKAIVILVINEGDANIELVGIKEQQQKQKQEEEPLEVQRYRAELSEDDVFVIPAAYPFVVNATSNLNFLAFGINAENNQRNFLAGEKDNVVRQIERQVQELAFPGSAQDVERLLKKQRESYFVDAQPQQKEEGSKGRKGPFPSILGALY
notes: expressed in E. coli; also called native form
B3: β-conglycinin β subunit mutant 39335-1 (other)
chain: MDYKDDDDKLKVREDENNPFYLRSSNSFQTLFENQNGRIRLIQRFNKRSPQLENLRDYRIVQFQSKPNTIILPHHADADFLLFVLSGRAILTLVNNDDRDSYILHPGDAQRIPAGTTYYLVNPHDHQNLKIIILAIPVNKPGRYDDFFLSSTQAQQSYLQGFSHNILETSFHSEFEEINRVLLGEEEEQRQQEGIIVELSKEQIRQLSRRAKSSSRKTISSEDEPFNLRSRNPIYSNNFGKIFEITPEKIIQLRDLDIFLSSVDINEGALLLPHFNSKAIVIIIINEGDANIEIVGIKEQQQKQKQEEEILEVQRYRAELSEDDVFVIPAAYPIVVNATSNINFLAFGINAENIQRNFLAGEKDNVVRQIERQVQELAFPGSAQDVERLLKKQRESYIVDAQPQQKEEGSKGRKGPFPSILGALY
B4: β-conglycinin β subunit mutant 39335-2 (other)
chain: B3 chain with R59I, L81I, I242F, I283L, I284V, I294L, I310P
B5: β-conglycinin β subunit mutant 39335-3 (other)
chain: B1 chain with N18I, L42I, R59I, H74I, P137I, V195I, P233I, N286I
B6: β-conglycinin β subunit mutant 39335-71 (other)
chain: MDYKDDDDKLKVREDENNPFYLRSSNSFQTLFENQNGRIRLIQRFNKRSPQIENLRDYRIVQFQSKPNTIILPHHADADFIIIILSGRAILTLVNNDDRDSYNIHPGDAQRIPAGTTYYIINPHDHQNLKIIKIAIPVNKPGRYDDFFLSSTQAQQSYLQGFSHNILETSFHSEFEEINRVLLGEEEEQRQQEGVIVELSKEQIRQLSRRAKSSSRKTISSEDEPFNLRSRNPIYSNNFGKFFEITPEKTPQIRDLDIFLSSVDINEGALLLPHFNSKAIVILVINEGDANIELVGIKEQQQKQKQEEEPLEVQRYRAELSEDDIIVIPAAYPFVVNATSNLNIIAIGINAENNQRNFLAGEKDNVVRQIERQVQELAFPGSAQDVERLLKKQRESYFVDAQPQQKEEGSKGRKGPFPSILGALY
B7: β-conglycinin β subunit mutant 39335-74 (other)
chain: B6 chain with I52L, I253L, I325V, I326F, I344F, I345L, I347F, F398I
B8: β-conglycinin β subunit mutant 39335-6 (other)
chain: MDYKDDDDKLKVREDENIPFYLRSSNSFQTLFENQNGRIRLIQRFNKRSPQLENLRDYIIVQFQSKPNTILLPIHADADFLLFVLSGRAILTLVNNDDRDSYNLHPGIAQRIPAGTTYYLVNIHDHQNLKIIKLAIIVNKPGRYDDFFLSSTQAQQSYLQGFSHNILETSFHSEFEEINRVLLGEEEEQRQQEGIIVELSKEQIRQLSRRAKSSSRKTISSEDEPFNLRSRNIIYSNNFGKFFEITPEKIIQLRDLDIFLSSVDINEGALLLPHFNSKAIVILVIIEGDANIELVGIKEQQQKQKQEEEPLEVQRYRAELSEDDVFVIPAAYPFVVNATSNLNFLAFGINAENNQRNFLAGEKDNVVRQIERQVQELAFPGSAQDVERLLKKQRESYFVDAQPQQKEEGSKGRKGPFPSILGALY
B9: β-conglycinin β subunit mutant 39328-63 (other)
chain: B1 chain with Y21W, Y58W, Y102W, P123W, Y144W, Y158W, P251W, Y316W, Y397W
B10: β-conglycinin β subunit mutant 39328-27 (other)
chain: B1 chain with Y21W, Y58W, H74W, Y102W, Y118W, Y119W
B11: β-conglycinin β subunit mutant 39328-59 (other)
chain: B1 chain with Y21W, Y58W, Y102W, Y119W, P123W, Y144W, Y158W, Y316W, Y397W
B12: β-conglycinin β subunit mutant 39328-36 (other)
chain: B1 chain with Y58W, Y102W, P123W, Y144W, Y158W, P225W, Y235W, P251W, Y316W
B13: β-conglycinin β subunit mutant 39328-65 (other)
chain: B1 chain with Y21W, Y58W, Y102W, P123W, Y144W, Y158W, Y316W, Y332W, Y397W

Target: the molecule itself
Assay: sucrose gradient sedimentation, anti-FLAG western (self-assembly)
Procedure: (§1) To determine if the recombinant forms of β subunit expressed in E. coli from pMON39328 and pMON39329 could self-assemble to form trimers, aliquots of the soluble protein fraction from E. coli lysates are layered onto 12 ml of a 5-25% sucrose density gradient and centrifuged at 36,000 rpm for 17.5 hours at 20° C. (Sorvall TH-641 rotor; Sorvall Ultra Pro 80 ultracentrifuge). Following centrifugation, the gradient is divided into fractions using a Labconco Autodensi-Flow instrument (Labconco, Kansas City, Mo.), and each fraction is analyzed by western blot analysis using Anti-FLAG M2 antibody (Stratagene Corporation, LaJolla, Calif.) to determine which fractions contained β-conglycinin β subunit. 7S and […] soy protein fractions, as well as ovalbumin (45 kD) and aldolase (158 kD), are run as size markers on separate gradients.

Protein | binding result
B1 | binds
B2 | binds

Target: the molecule itself
Assay: as above
Remark: another data set of the same source

Protein | binding result
B3 | no binding
B4 | no binding
B5 | no binding
B6 | no binding
B7 | no binding
B8 | no binding

Target: the molecule itself
Assay: as above
Remark: another data set of the same source
Procedure: as §1
This example sets forth confirmation of the protein structure from the expression of modified β-conglycinin β subunit clones. The assembly properties of the following modified forms of the β subunit (indicated by mutant ID number), each containing a different tryptophan substitution, are determined as described in Example 6. Western blot analysis of sucrose gradient fractions is carried out as in Example 6 using anti-FLAG antibody.

Protein | binding result
B9 | no binding
B10 | no binding
B11 | no binding
B12 | no binding
B13 | no binding
